B1: THAP1; numbered along this chain (parent)
chain: MVQSCSAYGCKNRYDKDKPVSFHKFPLTRPSLCKEWEAAVRRKNFKPTKYSSICSEHFTPDCFKRECNNKLLKENAVPTIFLCTEPHDKKEDLLEPQEQLPPPPLPPPVSQVDAAIGLLMPPLQTPVNLSVFCDHNYTVEDTMHQRKRIHQLEQQVEKLRKKLKTAQQRCRRQERQLEKLKEVVHFQKEKDDVSERGYVILPNDYFEIVEVPA

Variants of: B1
Test: THAP1 transcriptional activity (GFP+/GFP- enrichment relative to wild-type constructs) (ratio to WT); higher = more THAP1 activity (PSMB5 reporter activation)
Conditions: with PSMB5 promoter-GFP reporter
How it was run: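 A lentiviral site-saturation library covering residues 2–213 of human THAP1, with each position changed to all 20 amino acids, was transduced in duplicate at MOI ~0.3 into THAP1-knockout HEK-293T cells with mClover3 knocked in at endogenous PSMB5. Five days later, BFP+ cells were sorted into GFP-dim and GFP-bright bins and variants were counted by Illumina sequencing of genomic DNA amplicons. Activity is the bright/dim read fold change averaged over replicates and divided by the mean of wild-type synonymous constructs.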

First: MVQSCSAYGCKNRYDKDKPVSFHKFPLTRPSLCKEWEAAVRRKNFKPTKYSSICSEHFTPDCFKRECNNKLLKENAVPTIFLCTEPHDKKEDLLEPQEQLPPPPLPPPVSQVDAAIGLLMPPLQTPVNLSVFCDHNYTVEDTMHQRKRIHQLEQQVEKLRKKLKTAQQRCRRQERQLEKLKEVVHFQKEKDDVSERGYVILPNMYFEIVEVPA [D204M]
Second: MVQSCSAYGCKNRYPKDKPVSFHKFPLTRPSLCKEWEAAVRRKNFKPTKYSSICSEHFTPDCFKRECNNKLLKENAVPTIFLCTEPHDKKEDLLEPQEQLPPPPLPPPVSQVDAAIGLLMPPLQTPVNLSVFCDHNYTVEDTMHQRKRIHQLEQQVEKLRKKLKTAQQRCRRQERQLEKLKEVVHFQKEKDDVSERGYVILPNDYFEIVEVPA [D15P]
The THAP1 transcriptional activity of the first is higher: 0.901 for the first, 0.107 for the second.

First: MVQSCSAYGCKNRYDKDKPVSFHKFPLTRPSMCKEWEAAVRRKNFKPTKYSSICSEHFTPDCFKRECNNKLLKENAVPTIFLCTEPHDKKEDLLEPQEQLPPPPLPPPVSQVDAAIGLLMPPLQTPVNLSVFCDHNYTVEDTMHQRKRIHQLEQQVEKLRKKLKTAQQRCRRQERQLEKLKEVVHFQKEKDDVSERGYVILPNDYFEIVEVPA [L32M]
Second: MVQSCSAYGCKNRYDKDKPVSFHKFPLTRPSLCKEWEAAVRRKNFKPTKYSSICSEHFTPDCFKRECNNKLLKENAVPTQFLCTEPHDKKEDLLEPQEQLPPPPLPPPVSQVDAAIGLLMPPLQTPVNLSVFCDHNYTVEDTMHQRKRIHQLEQQVEKLRKKLKTAQQRCRRQERQLEKLKEVVHFQKEKDDVSERGYVILPNDYFEIVEVPA [I80Q]
The THAP1 transcriptional activity of the first is lower: 0.357 for the first, 0.628 for the second.

Going from MVQSCSAYGCKNRYDKDKPVSFHKFPLTRPSLCKEWEAAVRRKNFKPTKYSSICSEHFTPDCFKRECNNKLLKENAVPTIFLCTEPHDKKEDLLEPQEQLPPPPLPPPVSQVDAAIGLLMPPLQTPVNLSVFCDHNYTVEDTMHQRKRIHQLEQQVEKLRKKLKTAQQRCRRQERQLEKLKEVVHFQKPKDDVSERGYVILPNDYFEIVEVPA [E189P] to MVQSCSAYGCKNRYDKDKPVSFHKHPLTRPSLCKEWEAAVRRKNFKPTKYSSICSEHFTPDCFKRECNNKLLKENAVPTIFLCTEPHDKKEDLLEPQEQLPPPPLPPPVSQVDAAIGLLMPPLQTPVNLSVFCDHNYTVEDTMHQRKRIHQLEQQVEKLRKKLKTAQQRCRRQERQLEKLKEVVHFQKEKDDVSERGYVILPNDYFEIVEVPA [F25H], the THAP1 transcriptional activity falls from 0.761 to 0.115.

First: MVQSCSAYGCKNRYDKDKPVSFHKFPLTRPSLCKEWEAAVRRKNFKPTKYSSICSEHKTPDCFKRECNNKLLKENAVPTIFLCTEPHDKKEDLLEPQEQLPPPPLPPPVSQVDAAIGLLMPPLQTPVNLSVFCDHNYTVEDTMHQRKRIHQLEQQVEKLRKKLKTAQQRCRRQERQLEKLKEVVHFQKEKDDVSERGYVILPNDYFEIVEVPA [F58K]
Second: MVQSCSAYGCKNRYDKDKPVSFHKFPLTRPSLCKEWEAAVRRKNFKPTKYSSICSEHFTPDCFKRECNNKLLKENAVPTIFLCTEPHDKKEDLLEPQEQLPPPPLPPPVSQVDAAIGLLMPPLQTPVNLSVFCDHNYTVEDTMHQRKRIHQLEQQVEKLRKKLKTAQQRCRRQERQLEKLKERVHFQKEKDDVSERGYVILPNDYFEIVEVPA [V183R]
The THAP1 transcriptional activity of the first is lower: 0.0827 for the first, 0.844 for the second.

Going from MVQSCSAYGCKNRYDKDKPVSFHKFPLTRPSLCKEWEAAVRRKNFKPTKYSSICSEHFTPDPFKRECNNKLLKENAVPTIFLCTEPHDKKEDLLEPQEQLPPPPLPPPVSQVDAAIGLLMPPLQTPVNLSVFCDHNYTVEDTMHQRKRIHQLEQQVEKLRKKLKTAQQRCRRQERQLEKLKEVVHFQKEKDDVSERGYVILPNDYFEIVEVPA [C62P] to MVQICSAYGCKNRYDKDKPVSFHKFPLTRPSLCKEWEAAVRRKNFKPTKYSSICSEHFTPDCFKRECNNKLLKENAVPTIFLCTEPHDKKEDLLEPQEQLPPPPLPPPVSQVDAAIGLLMPPLQTPVNLSVFCDHNYTVEDTMHQRKRIHQLEQQVEKLRKKLKTAQQRCRRQERQLEKLKEVVHFQKEKDDVSERGYVILPNDYFEIVEVPA [S4I], the THAP1 transcriptional activity rises from 0.0987 to 0.182.

Compared with MVQSCSAYGCKNRYDKDKPVSFHKFPLTRPSLCKEWEAAVRRKNFKPTKYSSICSEHFTPDCFKRECNNKLLKENAVPTIFLCTEPHDKKEDLLEPQEQLPPPPLPPPVSQVDAAIGLLMPPLQTPVNLSVFCDHNYTVEDTMHQRKRIHQLEQQVEKLRKKLKTAQQRCRRQERQLEKLKEVVHFQKEKDDVSERGYVILPNDYFAIVEVPA [E207A], MVQSCSAYGCKNRYDKDKPVSFHKFPLTRPSLCKEWEAAVRRKNFKPTKYSSICSEHFTPDCFKRECNDKLLKENAVPTIFLCTEPHDKKEDLLEPQEQLPPPPLPPPVSQVDAAIGLLMPPLQTPVNLSVFCDHNYTVEDTMHQRKRIHQLEQQVEKLRKKLKTAQQRCRRQERQLEKLKEVVHFQKEKDDVSERGYVILPNDYFEIVEVPA [N69D] is lower in THAP1 transcriptional activity: 0.721 for the first, 0.131 for the second.

First: MVQSCSAYGCKNRYDKDKPVSFHKFPLTRPSLCKEWEAAVRRKNFKPTKYSSICSEHFTPDCFKRECNNKLLKENAVPTIFLCTEPHDKKEDLLEPQEQLPPPPLPPPVSQVDAAIGLLMPPLQTPVNLSVFCDHNYTVEDTMHQRKRIHQLEQQVEKLRKKLKTAQQRCRRQERQLEKLKEVVHFQKEKDDVSEQGYVILPNDYFEIVEVPA [R196Q]
Second: MVQSCSAYGCKNRYDKDKPVSFHKFPLTRPSLCKEWEAAVRRKNFKPTKYSSICGEHFTPDCFKRECNNKLLKENAVPTIFLCTEPHDKKEDLLEPQEQLPPPPLPPPVSQVDAAIGLLMPPLQTPVNLSVFCDHNYTVEDTMHQRKRIHQLEQQVEKLRKKLKTAQQRCRRQERQLEKLKEVVHFQKEKDDVSERGYVILPNDYFEIVEVPA [S55G]
The THAP1 transcriptional activity of the first is higher: 1.73 for the first, 0.185 for the second.

First: MVQSCSAYGCKNRYDKDKPVSFHKFPLTRPSLCKEWEAAVRRKNFKPTKYSSICSEHFTPDCFKRECNNKLLKENAVPTIFLCTEPHDKKEDLLEPQEQLPPPPLPPPVSQVDAAIGLLMPPLQTPVNLSVFCDHNYTVEDTMHQRKRIHQLEQQVEKLRKKLKTAQQRCRRQERQLGKLKEVVHFQKEKDDVSERGYVILPNDYFEIVEVPA [E178G]
Second: MVQSCSAYGCKNRYDKDKPVSFHKFPLTRPSLCKEWEAAVRRKNFKPTKYSSICSEHFTPDCFKRECNNKLLKERAVPTIFLCTEPHDKKEDLLEPQEQLPPPPLPPPVSQVDAAIGLLMPPLQTPVNLSVFCDHNYTVEDTMHQRKRIHQLEQQVEKLRKKLKTAQQRCRRQERQLEKLKEVVHFQKEKDDVSERGYVILPNDYFEIVEVPA [N75R]
The THAP1 transcriptional activity of the first is lower: 0.795 for the first, 0.829 for the second.

First: MVQSCSAYGCKNRYDKDKPVSFHKFPLTRPSLCKEWEAAVRRKNFKPTKYSSICSEHFTPDCFKRECNNKLLKENAVPTIFLCTEPHDKKEDLLEPQWQLPPPPLPPPVSQVDAAIGLLMPPLQTPVNLSVFCDHNYTVEDTMHQRKRIHQLEQQVEKLRKKLKTAQQRCRRQERQLEKLKEVVHFQKEKDDVSERGYVILPNDYFEIVEVPA [E98W]
Second: MVQSCSAYGCKNRYDKDKPVSFHKFPLTRPSLCKEWEAAVRRKNFKPTKYSSICSEHFTPDCFKRECNNKLLKENAVPTIFLCTEPHDKKEDLLEPQEQLPPPPLPPPVSQVDAAIGLLMPPLQTPVNLSVFCDHNYTVEDTMYQRKRIHQLEQQVEKLRKKLKTAQQRCRRQERQLEKLKEVVHFQKEKDDVSERGYVILPNDYFEIVEVPA [H144Y]
The THAP1 transcriptional activity of the first is lower: 0.567 for the first, 0.802 for the second.

Compared with MVQSCSAYGCKNRYDKDKPVSFHKFPLTRWSLCKEWEAAVRRKNFKPTKYSSICSEHFTPDCFKRECNNKLLKENAVPTIFLCTEPHDKKEDLLEPQEQLPPPPLPPPVSQVDAAIGLLMPPLQTPVNLSVFCDHNYTVEDTMHQRKRIHQLEQQVEKLRKKLKTAQQRCRRQERQLEKLKEVVHFQKEKDDVSERGYVILPNDYFEIVEVPA [P30W], MVQSCSAYGCKNRYDKDKPVSFHKFPLTRPSLCKEWEAAVRRKNFKPTKYSSICSEHFTPDCFKRECNNKLLKENAVPTIFLCTEPHDKKEDLLEPQEQLPPPPLPPPISQVDAAIGLLMPPLQTPVNLSVFCDHNYTVEDTMHQRKRIHQLEQQVEKLRKKLKTAQQRCRRQERQLEKLKEVVHFQKEKDDVSERGYVILPNDYFEIVEVPA [V109I] is higher in THAP1 transcriptional activity: 0.0759 for the first, 0.777 for the second.

Going from MVQSCSAYGCDNRYDKDKPVSFHKFPLTRPSLCKEWEAAVRRKNFKPTKYSSICSEHFTPDCFKRECNNKLLKENAVPTIFLCTEPHDKKEDLLEPQEQLPPPPLPPPVSQVDAAIGLLMPPLQTPVNLSVFCDHNYTVEDTMHQRKRIHQLEQQVEKLRKKLKTAQQRCRRQERQLEKLKEVVHFQKEKDDVSERGYVILPNDYFEIVEVPA [K11D] to MVQSCSAYGCKNRYDKDKLVSFHKFPLTRPSLCKEWEAAVRRKNFKPTKYSSICSEHFTPDCFKRECNNKLLKENAVPTIFLCTEPHDKKEDLLEPQEQLPPPPLPPPVSQVDAAIGLLMPPLQTPVNLSVFCDHNYTVEDTMHQRKRIHQLEQQVEKLRKKLKTAQQRCRRQERQLEKLKEVVHFQKEKDDVSERGYVILPNDYFEIVEVPA [P19L], the THAP1 transcriptional activity rises from 0.0638 to 0.412.

First: MVQSCSAYGCKNRYDKDKPVSFHKFPLTRPSLCKEWEAAVRRKNFKPTKYSSICSEHFTPDCFKRECNNKLLKENAVPTIFLCTEPHDKKEDLLEPQEQLPPPPLPPPVSQVDAAIGLLMPPLQTPVNLSVFCDHNYTVEDTTHQRKRIHQLEQQVEKLRKKLKTAQQRCRRQERQLEKLKEVVHFQKEKDDVSERGYVILPNDYFEIVEVPA [M143T]
Second: MVQSCSAYGCKNRYDKDKPVSFHKFPLTRPSLCKEWEAAVRRKNFKPTKYSSICSEHFTPDCFKRECNNKLLKENAVPTIFLCTEPHDKKEDLLEPQEQLPPPPLPPPVSQVDAAVGLLMPPLQTPVNLSVFCDHNYTVEDTMHQRKRIHQLEQQVEKLRKKLKTAQQRCRRQERQLEKLKEVVHFQKEKDDVSERGYVILPNDYFEIVEVPA [I116V]
The THAP1 transcriptional activity of the first is higher: 1.19 for the first, 1.05 for the second.
